Data published in US20260265360A1, “USE OF ANTI-FAM19A5 ANTAGONISTS FOR TREATING HEARING DISORDERS” (NEURACLE SCIENCE CO., LTD., priority 2023, published 2026).

Key:
C57BL/6 mice = assay: Effect of anti-FAM19A5 antibody administration itself on hearing ability (ABR threshold); format: in vivo, mouse; conditions: 30 mg/kg i.v. once weekly; 2 weeks post antibody administration; no noise exposure
Procedure: FIGS. 5A, 5B, and 5C show the effect of FAM19A5 antagonist administration on hearing ability in mice. The effect on hearing was assessed by measuring auditory brainstem response (ABR) generated after FAM19A5 antagonist administration. FIG. 5A provides a schematic of the experimental design. As shown, anti-FAM19A5 antibody (1-30) or control human IgG antibody was administered to the mice intravenously once a week (30 mg/kg per dose). ABR (i.e., hearing test) was measured prior to the initial administration of the antibodies and then at day 1, week 2, and 8 week post antibody administration. FIG. 5B provides comparison of ABR threshold in the mice prior to the initial administration of the anti-FAM19A5 antibody (box) or the control IgG antibody (circle). […] In both FIGS. 5B and 5C, the ABR threshold was measured at a frequency ranging from 0 to 64 kHz.
To assess whether the administration of a FAM19A5 antagonist itself has any effect on hearing, C57BL/6 mice (8 weeks old) were intravenously administered with either an anti-FAM19A5 antibody (1-30 antibody) or a control human IgG antibody. […] To assess hearing, auditory brainstem response (ABR) threshold was measured prior to the initial antibody administration and then at day 1, 2 weeks, and 8 weeks post antibody administration.

[1] = system: primary mouse spiral ganglion neurons; assay: Promotion of neurite outgrowth; format: cell-based; conditions: neurons isolated at postnatal day 4; neurofilament staining
Procedure: Sprial ganglion neuron were cultured in culture media consisting of high-glucose (4.5 mg/mL) DMEM, 0.1 mg/ml penicillin, 0.1 mg/mL streptomycin, N2 supplement, and 10 µg/mL insulin and was designated here as “5K” because in this media, [K+]=5.4 mM. A depolarizing media, designated as “30K,” in which Na was replaced with equimolar K to raise [K] to 30 mM while maintaining osmolarity was also used.
Dissociated spiral ganglion cell cultures were prepared from postnatal day 4-5 (P4-5) cochleae and maintained using a procedure modified from the methods described by Bok et al., J Neurosci 23 (3): 777-87 (2003), which is incorporated herein by reference in its entirety. The cochleae were aseptically dissected from the temporal bone and submerged in ice-cold HBSS (Gibco). Subsequent steps involved the removal of the bony cochlear capsule and the spiral ligament. The organ of Corti, surrounding connective tissue and modiolar bone was removed while preserving the spiral ganglion neurons within the modiolus. […]
Neurite outgrowth was quantified by measuring the total length of neurites per neuron. Neurons were stained with NF200 at either 2 or 3 DIV, and neurite lengths were measured using the Fiji (Image J). Individual neurons were manually selected, and neurite lengths were determined using the Simple Neurite Tracer plugin. […]

human FAM19A5 = human FAM19A5 (Homo sapiens, UniProt Q7Z5A7); assay: HDX-MS epitope mapping; format: binding; conditions: HDX-MS deuterium uptake heat map; residues of SEQ ID NO: 304
Procedure: Hydrogen/deuterium exchange mass spectrometry (HDX-MS) was utilized as described below to probe the binding epitope of human FAM19A5 for the clone 2-13 anti-FAM19A5 antibody.
Prior to epitope mapping experiments, non-deuteriated experiments were carried out to generate a list of common peptides for FAM19A5 protein. Off-line and on-line pepsin digestion were used to digest the FAM19A5 protein. Houde, D., et al., Methods Mol Biol 988:269-89 (2013). With on-line digestion, pepsin immobilized column was used (~20° C.) and the efficiency of the reaction was regulated by adjusting the flow rate. With the off-line method, FAM19A5 protein was digested manually with pepsin at 4° C. for 5 minutes, and then, the mixture was loaded to liquid chromatography column for analysis. To identify the condition for maximal protein coverage, one or more of the following parameters were adjusted: potassium phosphate, sodium phosphate, quench holding time, reducing reagent (TCEP), urea concentration, and pepsin concentration. The Waters PLGS software was used to analyze the raw mass spectrometry (MS) data generated to determine whether maximal protein coverage was obtained. To confirm the reproducibility of the experiments, each of the experimental conditions were repeated at least twice, and peptides that were generated were confirmed. […]

human FAM19A5, sequence (Q7Z5A7 26-125 isoform Q7Z5A7-2 limits assumed): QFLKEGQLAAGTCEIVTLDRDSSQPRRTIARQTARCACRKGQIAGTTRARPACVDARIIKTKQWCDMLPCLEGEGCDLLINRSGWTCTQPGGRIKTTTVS

Row | Molecule | ABR threshold values vs control IgG antibody (C57BL/6 mice) | neurite length vs control human IgG antibody [1] | amino acid residues identified as important binding residues (human FAM19A5)
1 | 1-30: anti-FAM19A5 antibody, de-immunized variant of 3-2; VH SEQ ID NO: 235, VL SEQ ID NO: 240 (antibody, V domains shown, Low-PI VH, 1-30 VH, 1-17 VH, 1-32 VH, 4-11 VH, 6-10 VH; 1-30 VL) VH: AVTLDESGGGLQTPGGALRLSCKASGFDFESFNMFWVRQAPGKGLEYVSQISSSEEDENYAPAVKGRATISRDNGQSTLYLQMNSLRAEDTGTYYCAKSSYDCPYGHCSSGVDSAGEIDAWGHGTEVIVSS VL: ALTQPSSVSANPGETVKITCSGGGSEEEQYYYGWYQQKPGSAPVTLIYQDEERPSDIPSRFSGSTSGSTATLTITGVQAGDEADYYCGSWDSEDEDHFGAGTTLTVL | remained comparable | promoting neurite outgrowth | 
2 | 2-13: anti-FAM19A5 antibody; VH SEQ ID NO: 35, VL SEQ ID NO: 39 (antibody, V domains shown, 2-13 VH; 2-13 VL) VH: AVTLDESGGGLQTPGGALSLVCKASGFTFSSHGMFWVRQTPGKGLEYVAEITNDGSGTNYGSAVKGRATISRDNGQSTVRLQLNNLRAEDTGTYFCARSTYECPGGFSCWGDTGQIDAWGHGTEVIVSS VL: ALTQPSSVSANPGETVKITCSGGSYSYGWFQQKSPGSALVTVIYWDDERPSDIPSRFSGALSGSTNTLTITGVQADDEAVYFCGTEDISGTAGVFGAGTTLTVL |  | promoting neurite outgrowth | 38-50 ([…]; i.e., SEQ ID NO: 199) and 51-64 ([…]; i.e., SEQ ID NO: 200)
